T1: LIN7C, Q9NUP9
T1 sequence (Q9NUP9 88-185, limits assumed, looked up): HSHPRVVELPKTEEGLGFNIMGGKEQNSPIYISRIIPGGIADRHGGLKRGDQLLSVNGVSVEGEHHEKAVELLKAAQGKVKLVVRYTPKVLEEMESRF

T2: MPP7, Q5T2T1
T2 sequence (Q5T2T1 134-230, limits assumed, looked up): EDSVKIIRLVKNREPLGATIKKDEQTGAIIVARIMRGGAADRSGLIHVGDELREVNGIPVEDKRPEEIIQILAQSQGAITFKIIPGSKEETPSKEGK

T3: DFNB31_3, Q9P202
T3 sequence (Q9P202 811-907, limits assumed, looked up): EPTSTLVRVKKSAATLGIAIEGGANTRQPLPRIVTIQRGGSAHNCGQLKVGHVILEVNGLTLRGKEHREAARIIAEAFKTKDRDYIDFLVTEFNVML

T4: HTRA3, P83110
T4 sequence (P83110 354-453, limits assumed, looked up): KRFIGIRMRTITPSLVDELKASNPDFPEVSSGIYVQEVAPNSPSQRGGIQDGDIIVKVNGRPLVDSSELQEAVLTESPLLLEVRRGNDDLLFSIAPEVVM

T5: ARHGEF11, O15085
T5 sequence (O15085 42-136, limits assumed, looked up): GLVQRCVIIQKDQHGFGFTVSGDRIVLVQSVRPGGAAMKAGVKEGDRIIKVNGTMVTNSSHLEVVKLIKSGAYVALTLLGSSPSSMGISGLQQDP

T6: DFNB31_1, Q9P202
T6 sequence (Q9P202 135-233, limits assumed, looked up): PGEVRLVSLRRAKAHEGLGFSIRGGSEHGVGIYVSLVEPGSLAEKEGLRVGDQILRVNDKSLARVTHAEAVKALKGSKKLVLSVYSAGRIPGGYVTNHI

T7: SIPA1L2, Q9P2F8
T7 sequence (Q9P2F8 945-1036, limits assumed, looked up): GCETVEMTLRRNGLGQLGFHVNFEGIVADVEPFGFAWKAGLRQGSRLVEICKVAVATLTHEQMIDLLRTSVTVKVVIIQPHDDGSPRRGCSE

T8: GRIP1_4, Q9Y3R0
T8 sequence (Q9Y3R0 467-571, limits assumed, looked up): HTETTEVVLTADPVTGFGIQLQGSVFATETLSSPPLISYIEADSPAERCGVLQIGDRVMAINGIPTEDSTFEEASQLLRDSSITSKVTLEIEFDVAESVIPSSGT

T9: GRIP1_3, Q9Y3R0
T9 sequence (Q9Y3R0 247-346, limits assumed, looked up): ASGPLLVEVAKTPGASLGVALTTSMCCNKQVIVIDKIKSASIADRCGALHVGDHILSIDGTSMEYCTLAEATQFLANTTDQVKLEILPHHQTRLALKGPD

T10: PDZRN3_1, Q9UPQ7
T10 sequence (Q9UPQ7 244-349, limits assumed, looked up): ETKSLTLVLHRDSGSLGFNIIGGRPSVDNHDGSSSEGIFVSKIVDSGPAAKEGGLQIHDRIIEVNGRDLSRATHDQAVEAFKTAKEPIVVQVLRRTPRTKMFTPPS

T11: SNTA1, Q13424
T11 sequence (Q13424 82-180, limits assumed, looked up): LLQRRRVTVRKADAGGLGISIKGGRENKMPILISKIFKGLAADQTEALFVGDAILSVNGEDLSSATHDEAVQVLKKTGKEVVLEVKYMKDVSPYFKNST

T12: DLG3_3, Q92796
T12 sequence (Q92796 374-475, limits assumed, looked up): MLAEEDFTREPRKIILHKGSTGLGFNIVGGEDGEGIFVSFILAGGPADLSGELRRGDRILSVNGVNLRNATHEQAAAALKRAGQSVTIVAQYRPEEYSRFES

T13: LIN7B, Q9HAP6
T13 sequence (Q9HAP6 88-185, limits assumed, looked up): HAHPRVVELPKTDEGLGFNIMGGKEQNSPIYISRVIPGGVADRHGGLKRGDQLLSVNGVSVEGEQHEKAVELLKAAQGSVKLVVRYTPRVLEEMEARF


How the values were obtained:
Experiment in all cases: holdup assay
Design in all cases: key: below the threshold = too weak to quantify, mostly under pKd 3.1 to 4
Details in all cases: plain residues with an end cap or a label only (N-terminal biotin on a linker: ado-ado)
LIN7C, Q9NUP9 = biological target: T1, LIN7C, Q9NUP9
MPP7, Q5T2T1 = biological target: T2, MPP7, Q5T2T1
DLG4_2, P78352 = biological target: DLG4_2, P78352
Chain of DLG4_2, P78352 (P78352 155-259): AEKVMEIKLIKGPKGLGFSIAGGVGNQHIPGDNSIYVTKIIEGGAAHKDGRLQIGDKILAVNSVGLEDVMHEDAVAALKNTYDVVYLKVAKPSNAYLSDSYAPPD

GRID2IP_1, A4D2P6 = biological target: GRID2IP_1, A4D2P6
Chain of GRID2IP_1, A4D2P6 (A4D2P6 1-87): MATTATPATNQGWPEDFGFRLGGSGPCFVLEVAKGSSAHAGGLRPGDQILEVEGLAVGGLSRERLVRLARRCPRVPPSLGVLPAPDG

DFNB31_3, Q9P202 = biological target: T3, DFNB31_3, Q9P202
Inadl_2, Q8NI35 = biological target: Inadl_2, Q8NI35
Chain of Inadl_2, Q8NI35 (Q8NI35 238-335): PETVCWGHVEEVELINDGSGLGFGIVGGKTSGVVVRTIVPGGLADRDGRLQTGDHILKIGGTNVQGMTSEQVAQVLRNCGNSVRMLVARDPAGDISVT

HTRA3, P83110 = biological target: T4, HTRA3, P83110
ARHGEF11, O15085 = biological target: T5, ARHGEF11, O15085
DFNB31_1, Q9P202 = biological target: T6, DFNB31_1, Q9P202
GORASP2, Q9H8Y8 = biological target: GORASP2, Q9H8Y8
SIPA1L2, Q9P2F8 = biological target: T7, SIPA1L2, Q9P2F8
GRIP1_4, Q9Y3R0 = biological target: T8, GRIP1_4, Q9Y3R0
GRIP1_3, Q9Y3R0 = biological target: T9, GRIP1_3, Q9Y3R0
FRMPD4, Q14CM0 = biological target: FRMPD4, Q14CM0
Chain of FRMPD4, Q14CM0 (Q14CM0 67-160): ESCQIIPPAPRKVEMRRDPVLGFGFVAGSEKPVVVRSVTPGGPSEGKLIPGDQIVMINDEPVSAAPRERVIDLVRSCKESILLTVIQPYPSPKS

NHERF4_2, Q86UT5 = biological target: NHERF4_2, Q86UT5
Chain of NHERF4_2, Q86UT5 (Q86UT5 220-308): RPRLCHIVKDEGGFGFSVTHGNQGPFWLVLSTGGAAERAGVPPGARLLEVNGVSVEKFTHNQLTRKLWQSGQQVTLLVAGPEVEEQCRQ

GOPC, Q9HD26 = biological target: GOPC, Q9HD26
PDZRN3_1, Q9UPQ7 = biological target: T10, PDZRN3_1, Q9UPQ7
GIPC2, Q8TF65 = biological target: GIPC2, Q8TF65
Chain of GIPC2, Q8TF65 (Q8TF65 112-203): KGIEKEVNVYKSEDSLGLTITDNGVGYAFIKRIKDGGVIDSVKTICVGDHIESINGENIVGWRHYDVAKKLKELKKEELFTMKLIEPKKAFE

GORASP1, Q9BQQ3 = biological target: GORASP1, Q9BQQ3
Chain of GORASP1, Q9BQQ3 (Q9BQQ3 1-208): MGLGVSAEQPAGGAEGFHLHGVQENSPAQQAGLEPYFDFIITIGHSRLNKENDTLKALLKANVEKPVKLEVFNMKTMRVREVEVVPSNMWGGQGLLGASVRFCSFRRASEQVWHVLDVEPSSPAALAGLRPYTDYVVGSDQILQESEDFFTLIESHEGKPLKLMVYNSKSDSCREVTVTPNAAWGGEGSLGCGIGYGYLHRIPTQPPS

CASK, O14936 = biological target: CASK, O14936
Chain of CASK, O14936 (O14936 487-570): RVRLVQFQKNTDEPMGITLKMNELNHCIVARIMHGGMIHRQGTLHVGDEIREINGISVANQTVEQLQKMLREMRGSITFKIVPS

GRIP2_5, Q9C0E4 = biological target: GRIP2_5, Q9C0E4
Chain of GRIP2_5, Q9C0E4 (Q9C0E4 544-642): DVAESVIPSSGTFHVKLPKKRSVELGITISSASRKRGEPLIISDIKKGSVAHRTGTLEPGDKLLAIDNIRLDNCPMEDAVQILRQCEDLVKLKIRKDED

SNTA1, Q13424 = biological target: T11, SNTA1, Q13424
DLG3_3, Q92796 = biological target: T12, DLG3_3, Q92796
LIN7B, Q9HAP6 = biological target: T13, LIN7B, Q9HAP6
MAGI2_4, Q86UL8 = biological target: MAGI2_4, Q86UL8
Chain of MAGI2_4, Q86UL8 (Q86UL8 772-865): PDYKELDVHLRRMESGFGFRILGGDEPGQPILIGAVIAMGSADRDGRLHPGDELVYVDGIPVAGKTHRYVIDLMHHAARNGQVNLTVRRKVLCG

pKd (LIN7C, Q9NUP9) | pKd (MPP7, Q5T2T1) | pKd (DLG4_2, P78352) | pKd (GRID2IP_1, A4D2P6) | pKd (DFNB31_3, Q9P202) | pKd (Inadl_2, Q8NI35) | pKd (HTRA3, P83110) | pKd (ARHGEF11, O15085) | pKd (DFNB31_1, Q9P202) | pKd (GORASP2, Q9H8Y8) | pKd (SIPA1L2, Q9P2F8) | pKd (GRIP1_4, Q9Y3R0) | pKd (GRIP1_3, Q9Y3R0) | pKd (FRMPD4, Q14CM0) | pKd (NHERF4_2, Q86UT5) | pKd (GOPC, Q9HD26) | pKd (PDZRN3_1, Q9UPQ7) | pKd (GIPC2, Q8TF65) | pKd (GORASP1, Q9BQQ3) | pKd (CASK, O14936) | Binder | also measured
below the threshold | below the threshold | below the threshold | below the threshold | 4 | below the threshold | below the threshold | 4.45 | 3.56 | below the threshold | below the threshold | below the threshold | below the threshold | 4.73 | below the threshold | below the threshold | below the threshold | below the threshold | below the threshold | below the threshold | VISSDDLTEL [CAPN6, Q9Y6Q1] | pKd (GRIP2_5, Q9C0E4): below the threshold; pKd (SNTA1, Q13424): below the threshold; pKd (DLG3_3, Q92796): below the threshold; pKd (LIN7B, Q9HAP6): 3.56; pKd (MAGI2_4, Q86UL8): below the threshold
below the threshold | below the threshold | 5.64 | 3.6 | below the threshold | below the threshold | below the threshold | 4.25 | 3.82 | 4.25 | below the threshold | below the threshold | below the threshold | below the threshold | below the threshold | 4.67 | 3.75 | 3.56 | 3.87 | below the threshold | THHRKIHTRV [ZNF599, Q96NL3] | pKd (GRIP2_5, Q9C0E4): 3.48; pKd (SNTA1, Q13424): 4.3; pKd (DLG3_3, Q92796): 4.43; pKd (LIN7B, Q9HAP6): below the threshold; pKd (MAGI2_4, Q86UL8): below the threshold
below the threshold | below the threshold | 3.79 | below the threshold | below the threshold | below the threshold | 4.72 | 4.16 | below the threshold | 4.88 | below the threshold | below the threshold | below the threshold | below the threshold | below the threshold | below the threshold | below the threshold | below the threshold | 4.55 | below the threshold | PSVYSRSQYV [CLDN8, P56748] | pKd (GRIP2_5, Q9C0E4): below the threshold; pKd (SNTA1, Q13424): below the threshold; pKd (DLG3_3, Q92796): below the threshold; pKd (LIN7B, Q9HAP6): below the threshold; pKd (MAGI2_4, Q86UL8): 3.62
3.58 | 3.8 | 3.54 | below the threshold | 5.34 | 3.92 | 5.43 | 5.33 | 3.85 | 4.9 | below the threshold | below the threshold | below the threshold | 5.15 | below the threshold | 4.16 | 3.76 | below the threshold | 5 | below the threshold | NKSEPFLTWL [WWTR1, Q9GZV5] | pKd (GRIP2_5, Q9C0E4): below the threshold; pKd (SNTA1, Q13424): below the threshold; pKd (DLG3_3, Q92796): below the threshold; pKd (LIN7B, Q9HAP6): below the threshold; pKd (MAGI2_4, Q86UL8): 3.85
3.5 | below the threshold | 3.75 | below the threshold | 3.65 | below the threshold | below the threshold | below the threshold | below the threshold | 3.87 | below the threshold | below the threshold | below the threshold | 3.65 | below the threshold | below the threshold | below the threshold | below the threshold | below the threshold | below the threshold | RGKNRRQSIF [CDK18, Q07002] | pKd (GRIP2_5, Q9C0E4): below the threshold; pKd (SNTA1, Q13424): below the threshold; pKd (DLG3_3, Q92796): 3.71; pKd (LIN7B, Q9HAP6): 4.03; pKd (MAGI2_4, Q86UL8): below the threshold
3.69 | below the threshold | 3.54 | below the threshold | 3.55 | below the threshold | below the threshold | below the threshold | below the threshold | below the threshold | below the threshold | below the threshold | below the threshold | below the threshold | below the threshold | below the threshold | below the threshold | below the threshold | below the threshold | below the threshold | QLGSPTADLA [SIPA1, Q96FS4] | pKd (GRIP2_5, Q9C0E4): below the threshold; pKd (SNTA1, Q13424): below the threshold; pKd (DLG3_3, Q92796): below the threshold; pKd (LIN7B, Q9HAP6): 3.9; pKd (MAGI2_4, Q86UL8): below the threshold

Source: publication PMC9482650, “Quantitative fragmentomics allow affinity mapping of interactomes” (Nature Communications, 2022)
